Columns and labels:
[1] = target: T1, soluble complex of the extracellular domain of human GARP and human LAP-TGFβ1 (human, UniProt Q14392 20-627); experiment: BLI, component 1
T1 construct: extracellular domain; also called sGARP-LAP-TGFβ1; sGARP-LAP
Description: (§1) A streptavidin-functionalized tip was equilibrated in binding buffer (10 mM sodium phosphate, 150 mM sodium chloride, 1% (w/v) bovine serum albumin, 0.05% (w/v) sodium azide, pH 7.4) and dipped in a 5 μg/mL solution of biotinylated antibody (i.e., 20E6_H0.2aL1_hIgG1, murine 16F4, or MHG8, a GARP-specific murine IgG2a described in Lienart et al. Science 2018; 362:952-956) in binding buffer for 30 seconds to load the tip with antibody. The antibody-loaded tip was then washed in binding buffer and placed in a solution containing 0-24 nM of a fusion protein containing a human IgG1 Fc domain fused to either human LAP-TGFβ1, the soluble GARP-LAP-TGFβ1 complex, or the soluble ECR3E-LAP-TGFβ1 complex. The antigen was allowed to bind to antibody for 5 minutes (association phase), and then the tip was moved to binding buffer (dissociation phase). The binding and dissociation data for 16F4 and MHG8 were well-fit by a 1:1 binding model. The association and dissociation phases for 20E6_H0.2aL1_hIgG1 antibody were fit to a 2:1 heterogenous ligand binding model to determine the binding rate constants.
(§2) As shown in FIG. 24 and Table 21, the 20E6_H0.2aL1_hIgG1 antibody bound to free LAP-TGFβ1 and the soluble GARP-LAP-TGFβ1 complex with nanomolar affinity, but not to the ECR3E-LAP-TGFβ1 complex. As expected, the anti-GARP antibody (MHG8) bound to the GARP-LAP-TGFβ1 complex, but not to free LAP-TGFβ1 or the ECR3E-LAP-TGFβ1 complex. 16F4 bound tightly to all three constructs.

[2] = target: T2, fusion protein of a human IgG1 Fc domain and human LAP-TGFβ1 (human, UniProt P01137 30-390); experiment: BLI, 2:1 model, component 2
T2 construct: printed both as Fc-huB1 and LAP-TGFβ-Fc; also called Fc-huB1; Fc-human LAP
T2 sequence (P01137 30-390 limits assumed): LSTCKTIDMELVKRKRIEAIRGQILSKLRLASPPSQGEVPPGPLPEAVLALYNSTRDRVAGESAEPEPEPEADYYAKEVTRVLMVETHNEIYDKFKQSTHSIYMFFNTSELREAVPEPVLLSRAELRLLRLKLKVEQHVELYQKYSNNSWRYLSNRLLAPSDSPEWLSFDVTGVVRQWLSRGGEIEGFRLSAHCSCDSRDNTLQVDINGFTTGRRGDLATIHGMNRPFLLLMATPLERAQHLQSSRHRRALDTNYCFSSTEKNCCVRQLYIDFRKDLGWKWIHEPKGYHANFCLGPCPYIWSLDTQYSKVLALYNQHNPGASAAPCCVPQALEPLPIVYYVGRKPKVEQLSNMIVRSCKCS
Description: as §1, §2

[3] = target: T2, fusion protein of a human IgG1 Fc …; experiment: BLI, 2:1 heterogeneous ligand model, component 2
Description: The 20E6_H0.2aL1_IgG1 antibody was biotinylated using EZ-Link SulfoNHS-LC-Biotin (ThermoFisher). A streptavidin-functionalized tip was equilibrated in binding buffer (10 mM sodium phosphate, 150 mM sodium chloride, 1% (w/v) bovine serum albumin, 0.05% (w/v) sodium azide, pH 7.4) and dipped in a 10 μg/mL solution of biotinylated anti-LAP in binding buffer for 30 seconds to load the tip with antibody. The antibody-loaded tip was then washed in binding buffer and placed in a solution containing 0-24 nM of a fusion protein having a human IgG1 Fc domain fused to either human LAP-TGFβ1, human LAP-TGFβ2 or human LAP-TGFβ3. The antigen was allowed to bind to antibody for 5 minutes (association phase), and then the tip was moved to binding buffer (dissociation phase). The association and dissociation phases were fit to a 2:1 heterogenous ligand binding model to determine the binding rate constants. As shown in FIG. 21A and Table 17, 20E6_H0.2aL1_IgG1 bound with sub-nanomolar affinity to human LAP-TGFβ1, but not to human LAP-TGFβ2 (FIG. 21B) or LAP-TGFβ3 (FIG. 21C).

[4] = target: T3, human GARP and human LAP-TGFβ1 co-expressed on P3U1 cells (human, UniProt Q14392 20-662); experiment: flow cytometry, P3U1 cells
T3 construct: whole, on cells; also called P3U1 cells over-expressing human GARP and LAP-TGFβ1
T3 sequence (chain, as listed by the source, chain 1 of 2): as the sequence (P01137 30-390 limits assumed) above
T3 sequence (Q14392 20-662, chain 2 of 2): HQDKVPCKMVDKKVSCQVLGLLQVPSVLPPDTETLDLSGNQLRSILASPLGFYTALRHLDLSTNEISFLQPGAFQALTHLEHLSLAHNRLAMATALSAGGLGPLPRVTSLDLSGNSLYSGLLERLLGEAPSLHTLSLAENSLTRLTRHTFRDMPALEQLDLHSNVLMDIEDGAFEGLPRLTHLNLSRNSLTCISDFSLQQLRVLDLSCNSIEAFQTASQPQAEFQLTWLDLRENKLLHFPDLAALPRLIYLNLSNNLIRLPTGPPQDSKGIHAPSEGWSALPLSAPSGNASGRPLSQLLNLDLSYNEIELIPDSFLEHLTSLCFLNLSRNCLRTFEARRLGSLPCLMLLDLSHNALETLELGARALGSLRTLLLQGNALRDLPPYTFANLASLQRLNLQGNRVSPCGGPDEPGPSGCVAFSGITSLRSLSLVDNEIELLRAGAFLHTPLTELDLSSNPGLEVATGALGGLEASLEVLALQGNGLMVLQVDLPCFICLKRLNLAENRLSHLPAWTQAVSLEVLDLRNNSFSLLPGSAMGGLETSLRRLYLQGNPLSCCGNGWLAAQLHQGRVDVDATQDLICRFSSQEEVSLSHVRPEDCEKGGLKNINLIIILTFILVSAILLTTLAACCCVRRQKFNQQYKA
Description: (§3) This Example describes the binding of anti-LAP antibodies to LAP-TGFβ isoforms and LAP-TGFβ variants. In addition to antibodies 28G11_hIgG1, 22F9_hIgG1, and 20E6_hIgG1, anti-LAP antibodies 17G8_hIgG1, 24E3_hIgG1, and 2C9_(hyb) were also tested in this experiment. Briefly, 4×10⁵ each of (a) HT1080 cells, (b) HT1080 cells overexpressing human LAP-TGFβ1, (c) HT1080 cells overexpressing human LAP-TGFβ2, (d) HT1080 cells overexpressing human LAP-TGFβ3, (e) HT1080 cells overexpressing murine LAP-TGFβ1, (f) P3U1 cells, (g) P3U1 cells overexpressing LAP-TGFβ1 and GARP, and (h) P3U1 cells overexpressing LAP-TGFβ1 and LRRC33 were cultured in 96-well plates. The plates were centrifuged for 5 min at 1,500 rpm, liquid was removed, and cells were resuspended with 200 μL FACS buffer. The plates were centrifuged again, diluted primary antibody was added to each well, and the plates were incubated on ice for 20 minutes, followed by centrifugation. The cells were resuspended in 200 μL FACS buffer, centrifuged again, and resuspended in 50 μL diluted secondary antibody (Alexa647-anti-Human IgG or APC-anti-Mouse IgG). The plates were incubated on ice for 20 minutes in the dark, washed twice with 200 μL FACS buffer, and cells from each well (in 200 μL FACS buffer) were read on the Attune NXT instrument.

[5] = target: human LAP-TGFβ1 overexpressed on cells (human, UniProt P01137 30-390); experiment: cell-based or functional assay
Chain of human LAP-TGFβ1 overexpressed on cells (P01137 30-390): as the sequence (P01137 30-390 limits assumed) above

[6] = target: T4, human LAP-TGFβ2 overexpressed on HT1080 cells (human, UniProt P61812 21-414); experiment: flow cytometry titration, HT1080-huB2 cells
T4 construct: also called HT1080-huB2
T4 sequence: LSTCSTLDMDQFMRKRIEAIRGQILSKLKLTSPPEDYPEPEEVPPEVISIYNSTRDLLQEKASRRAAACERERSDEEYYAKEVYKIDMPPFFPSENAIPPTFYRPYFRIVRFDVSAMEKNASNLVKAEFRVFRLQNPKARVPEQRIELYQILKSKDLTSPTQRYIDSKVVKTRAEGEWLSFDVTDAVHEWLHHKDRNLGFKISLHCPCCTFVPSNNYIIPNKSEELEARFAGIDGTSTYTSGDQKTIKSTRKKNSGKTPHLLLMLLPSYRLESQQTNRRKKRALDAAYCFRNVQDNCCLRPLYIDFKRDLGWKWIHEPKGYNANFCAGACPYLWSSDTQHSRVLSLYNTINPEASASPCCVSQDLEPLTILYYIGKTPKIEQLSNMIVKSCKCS
Description: as §3

T1 sequence (chain, as listed by the source limits assumed, chain 1 of 2): as the sequence (P01137 30-390 limits assumed) above
T1 sequence (Q14392 20-627 limits assumed, chain 2 of 2): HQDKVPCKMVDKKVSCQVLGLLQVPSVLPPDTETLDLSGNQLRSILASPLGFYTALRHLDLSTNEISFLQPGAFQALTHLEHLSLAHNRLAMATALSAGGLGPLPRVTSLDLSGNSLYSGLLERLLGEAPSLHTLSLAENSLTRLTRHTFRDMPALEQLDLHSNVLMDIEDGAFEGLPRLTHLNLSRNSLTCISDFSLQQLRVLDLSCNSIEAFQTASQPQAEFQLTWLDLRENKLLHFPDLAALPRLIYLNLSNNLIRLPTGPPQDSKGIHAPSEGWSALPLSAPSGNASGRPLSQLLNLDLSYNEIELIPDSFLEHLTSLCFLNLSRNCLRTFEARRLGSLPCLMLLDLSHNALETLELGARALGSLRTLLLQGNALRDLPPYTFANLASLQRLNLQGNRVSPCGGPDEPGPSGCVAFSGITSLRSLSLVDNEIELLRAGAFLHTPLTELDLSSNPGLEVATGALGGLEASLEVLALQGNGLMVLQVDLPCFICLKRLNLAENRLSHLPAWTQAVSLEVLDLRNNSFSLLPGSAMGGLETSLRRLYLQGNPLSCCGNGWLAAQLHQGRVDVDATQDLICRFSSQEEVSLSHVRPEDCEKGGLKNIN

Binder | Kd [1] | koff [1] | kon [1] | Kd [2] | koff [2] | kon [2] | Kd [3] | koff [3] | kon [3] | binding result [4] | Inhibition of human TGFβ1 activation (IC50) [5] | binding result [6]
20E6_H0.2aL1_hIgG1 (antibody, also called 20E6_H0.2aL1_IgG1; humanized 20E6) heavy: not shown light: DIQMTQSPSSLSASVGDRVTITCRASQDITNYLNWYQQKPGKAVKLLIYYTSRLHSGVPSRFSGSGSGTDYTLTISSLQPEDFATYFCQQGDTLPWTFGQGTKLEIKRTVAAPSVFIFPPSDEQLKSGTASVVCLLNNFYPREAKVQWKVDNALQSGNSQESVTEQDSKDSTYSLSSTLTLSKADYEKHKVYACEVTHQGLSSPVTKSFNRGEC | 18700 pM | 0.0518 s⁻¹ | 2.77e+06 M⁻¹ s⁻¹ | 960 pM | 0.00092 s⁻¹ | 960000 M⁻¹ s⁻¹ | 350 pM | 0.000409 s⁻¹ | 1.18e+06 M⁻¹ s⁻¹ |  |  | 
22F9_hIgG1 (antibody, V domains shown) VH: QVQLQQPGAELVKPGASVKLSCKASGYTFTSYWMHWVKQRPGQGLEWIGMIHPNSGSTNYNEKFKSKATLTVDKSSSTAYMQLSSLTSEDSAVYYCAYYDYDGFFDVWGTGTTVTVSS VL: DIVLTQSPASLDVSLGQRATISCRASKSVSTSGYSYMHWYQQKSGQPPKLLIYLASNLESGVPARFSGSGSGTHFTLNIHPVEEEDAATYYCQHSRELPYTFGGGTKLEIK |  |  |  |  |  |  |  |  |  | binds | 3.9 µg/mL | no binding (tested: about 800 ng/well)
